Data reported in US20250340881A1, “PHARMACEUTICAL COMPOSITION FOR TREATING CANCER COMPRISING FOXM1 MUTANT OR FOXM1 SHRNA” (Industry-University Cooperation Foundation Hanyang …, priority 2022, published 2025).

Tests used:
A549 cells [1] = experiment: MTT viability of A549 cells co-cultured with THP-1 cells; assay type: cell-based; details: ratios 1:0, 1:2, 1:4, 1:6, 48 hours
Experimental: The cell viability was measured to investigate whether the FoxM1 phosphorylation and non-phosphorylation point mutations affected the viability of lung cancer cells, after co-culturing the lung cancer cells (A549) expressing the FoxM1 phosphorylation and non-phosphorylated point mutants and monocyte THP-1 cells. A549 cells (4×10^4 cells/mL) and THP-1 cells were co-cultured at ratios of 1:0, 1:2, 1:4, and 1:6 for 48 hours, and after co-culturing for 48 h and washing off the THP-1 cells, the viability of A549 cells attached to the bottom was measured by an MTT assay.

A549 cells [2] = experiment: Viability of A549 cells co-cultured with Jurkat cells; assay type: cell-based
Source text: In addition, through the co-culture of the A549 cells expressing the FoxM1 S25E phosphorylated point mutant (A549^S25E) and Jurkat cells as T cells, it was tried to examine the effects on cancer immunity of T cells (FIG. 7D).

A549 cells [3] = experiment: MTT viability of A549 cells co-cultured with THP-1 cells and Jurkat cells; assay type: cell-based; details: ratios 1:0:0, 1:6:0, 1:0:6, 1:6:6, 48 h
Experimental: To investigate the polarization into tumor-infiltrating T lymphocytes (TILs) by A549^S25E cells, the expression levels of CD25 and CD29, which were expressed in TILs, were analyzed by qRT-PCR after co-culturing Jurkat cells (1.2×10^5 cells) and A549^S25E cells (4×10^4 cells) for 48 h. As a result, it was observed that there was a significant increase of 3 folds or more, in the expression of CD25 and CD29 in Jurkat cells co-cultured with A549^S25E cells. […] Additionally, to investigate the inhibitory effect of A549^S25A cells on tumor immune evasion by TAMs or TILs in the tumor microenvironment, the viability change was examined by an MTT assay analysis after co-culturing A549 cells expressing the FoxM1 phosphorylation or non-phosphorylated point mutant, THP-1 cells, and Jurkat cells at a ratio of 1:0:0, 1:6:0, 1:0:6, and 1:6:6 for 48 h. […] That is, there was the inhibitory effect of the cells expressing non-phosphorylated point mutant on the tumor immune evasion by TAMs or TILs in the tumor microenvironment. Therefore, the present invention provided the inhibitory effects of the non-phosphorylated point mutant of FoxM1 on tumor immune evasion.

A549 cancer cells = experiment: Tail vein injection metastatic cancer animal model with A549 cells expressing FoxM1 mutants; assay type: in vivo, mice; details: for cancer metastasis to lung and tumorigenesis (tumorigenicity): A549 cells expressing the mutant injected into tail vein of mice; for degree of cancer cell proliferation by H&E and Ki67 staining: lung tissue of injected mice
Experimental: To observe the tumorigenic potential of cancer cells in animal models, the present inventors aimed to evaluate the tumorigenicity-promoting and -suppressing effects of cancer cells by using cancer cells expressing phosphorylation and non-phosphorylated point mutants of FoxM1 S25 residue.
Specifically, A549 cancer cells (2×10^6 cells) stably expressing FoxM1 protein containing point mutations were diluted in PBS and injected into the tail vein of mice. The mice were raised for 8 weeks, and then laparotomy was performed to observe cancer cell metastasis and tumorigenesis in organs.

A549 cells [4] = experiment: PD-L1 (CD274) mRNA in A549 cells by real-time PCR; assay type: cell-based
Experimental: To examine the mRNA expression levels of PD-1 and PD-L1, which are involved in solid tumor immune evasion, in THP-1 cells and the cells expressing the FoxM1 phosphorylated point mutant, the expression of PD-1 (CD279) mRNA, an immune evasion factor, was measured by qRT-PCR in THP-1 monocytes co-cultured with A549^S25E cells for 48 h (FIG. 7B). It was observed that the expression of mRNA of PD-L1 (CD274), an immune evasion factor, increased by 2 folds in the A549^S25E cells expressing the phosphorylated point mutant compared to the control group.

A549 lung cancer cells = experiment: Matrigel invasion assay of A549 cells expressing FoxM1 WT or point mutants; assay type: cell-based; details: for invasion of cancer cells (in words): Matrigel invasion assay, A549
Experimental: To observe the effects of the WT, phosphorylation, and non-phosphorylated point mutants of FoxM1 proteins on the invasion of cancer cells, an invasion assay using Matrigel was performed in lung cancer cells A549 expressing these mutants.
Specifically, after completely dissolving Matrigel at 4° C. for 16-20 hours, Matrigel was diluted with cold serum-free RPMI 1640 (4° C.) to 1 mg/ml. 100 μl of Matrigel mixture (1 mg/ml) was added to an […] 24-well insert and solidified in a 37° C. incubator for 12-20 hours. 1×10^5 cells/well of lung cancer cells A549 expressing each WT, phosphorylation, and non-phosphorylated point mutant FoxM1 proteins were diluted in serum-free RPMI 1640 (36° C.) and dispensed onto the insert. 0.5 ml/well of warm RPMI 1640 (10% FBS) at 36° C. was dispensed to the insert. For the positive control group, 0.5 ml of RPMI 1640 (10% FBS) containing 5 ng/ml TGF-β at 36° C. was used. The medium was changed once every 3 days, and the degree of invasion was observed. On the 7th day, when sufficient cancer cell invasion was observed, the medium was removed, washed with 1×PBS, and the cells inside the insert were scraped with a cotton swab and washed with 1×PBS to remove any remaining cells and Matrigel inside the insert. 500 μl of 4% paraformaldehyde was dispensed into the 24 wells with the outer surface of the insert, incubated at room temperature for 5 minutes, washed three times with 1×PBS, and stained with 0.05% crystal violet solution for 5 minutes. After 5 minutes, it was washed five times with 1×PBS and dissolved in DMSO. The degree of staining was determined by measuring the absorbance at 590 nm.
Specifically, Matrigel was completely solved at 4° C. for 16-20 hours and diluted to 1 mg/ml in cold serum free RPMI 1640 (4° C.). 100 μl of Matrigel mixture (1 mg/ml) was added into […] 24-well insert and solidified in a 37° C. incubator for 12-20 hours. A549 lung cancer cells expressing Mock or the experimental group FoxM1 WT protein were dispensed on the solidified Matrigel insert with 1×10^5 cells/well diluted in serum free RPMI 1640 (36° C.), and 0.5 ml/well of 36° C. of warm RPMI 1640 (10% FBS) were dispensed. For the positive control group, 0.5 ml of 36° C. RPMI 1640 (10% FBS) containing 5 ng/ml of TGF-β were dispensed. Then, once in 3 days, the medium was changed, and the level of invasion was observed. […] 500 ul of 4% paraformaldehyde was dispensed into 24 wells where the outer surface of the insert was placed, incubated for 5 minutes at room temperature, washed three times with 1×PBS, and stained with 0.05% crystal-violet solution for 5 minutes. After 5 minutes, they were washed 5 times with 1×PBS, and the degree of staining was dissolved in DMSO, and the wavelength was measured at 590 nm.

Molecule | viability of A549 cells co-cultured with THP-1 cells (A549 cells [1]) | viability of A549 cells co-cultured with Jurkat cells (A549 cells [2]; ratio 1:2, 48 h) | viability of A549 cells co-cultured with Jurkat cells (A549 cells [2]; ratio 1:4, 48 h) | viability of A549 cells co-cultured with Jurkat cells (A549 cells [2]; ratio 1:6, 48 h) | viability change of A549 cells co-cultured with THP-1 and Jurkat cells (A549 cells [3]) | cancer metastasis to lung and tumorigenesis (tumorigenicity) (A549 cancer cells) | cancer metastasis to lung and tumorigenesis (tumorigenicity) (A549 cancer cells; listed as S325E) | degree of cancer cell proliferation by H&E and Ki67 staining (A549 cancer cells) | mRNA expression of PD-L1 (CD274) compared to the control group (A549 cells [4]; A549 cells expressing the protein) | invasion of cancer cells (in words) (A549 lung cancer cells) | absorbance value at 590 nm (invasion) compared to the control group (A549 lung cancer cells; Matrigel, 7th day, control set to 1) | viability of A549 cells co-cultured with Jurkat cells (in words) (A549 cells [2]; compared to WT or phosphorylation mutant, 48 h) | cancer metastasis to lung and tumorigenesis (tumorigenicity) (A549 cancer cells; listed as FoxM1 protein containing the non-phosphorylation point mutations) | cancer metastasis to lung and tumorigenesis (tumorigenicity) (A549 cancer cells; listed as non-phosphorylated point mutant of FoxM1) | mRNA (CD274) expression of PD-L1, reduction compared to the control group (A549 cells [4]; A549 cells expressing the mutant) | invasion of cancer cells (in words) (A549 lung cancer cells; listed as FoxM1 non-phosphorylated point mutant) | invasion of cancer cells (in words) (A549 lung cancer cells; listed as non-phosphorylated point mutant protein of FoxM1)
S25E: FoxM1 phosphorylated point mutant of the S25 residue, expressed by lentivirus in A549 cells (protein, listed as Homo sapiens) MKTSPRRPLILKRRRLPLPVQNAPEETSEEEPKRSPAQQESNQAEASKEVAESNSCKFPAGIKIINHPTMPNTQVVAIPNNANIHSIITALTAKGKESGSSGPNKFILISCGGAPTQPPGLRPQTQTSYDAKRTEVTLETLGPKPAARDVNLPRPPGALCEQKRETCDGEAAGCTINNSLSNIQWLRKMSSDGLGSRSIKQEMEEKENCHLEQRQVKVEEPSRPSASWQNSVSERPPYSYMAMIQFAINSTERKRMTLKDIYTWIEDHFPYFKHIAKPGWKNSIRHNLSLHDMFVRETSANGKVSFWTIHPSANRYLTLDQVFKQQQKRPNPELRRNMTIKTELPLGARRKMKPLLPRVSSYLVPIQFPVNQSLVLQPSVKVPLPLAASLMSSELARHSKRVRIAPKVLLAEEGIAPLSSAGPGKEEKLLFGEGFSPLLPVQTIKEEEIQPGEEMPHLARPIKVESPPLEEWPSPAPSFKEESSHSWEDSSQSPTPRPKKSYSGLRSPTRCVSEMLVIQHRERRERSRSRRKQHLLPPCVDEPELLFSEGPSTSRWAAELPFPADSSDPASQLSYSQEVGGPFKTPIKETLPISSTPSKSVLPRTPESWRLTPPAKVGGLDFSPVQTSQGASDPLPDPLGLMDLSTTPLQSAPPLESPQRLLSSEPLDLISVPFGNSSPSDIDVPKPGSPEPQVSGLAANRSLTEGLVLDTMNDSLSKILLDISFPGLDEDPLGPDNINWSQFIPELQ | gradually increased | 1.2 folds | 1.3 folds | 1.5 folds | significantly increased | significantly higher | highest tumorigenicity | high | 2 folds | highest cancer cell invasion | ~40 times | – | – | – | – | – | –
S25A: FoxM1 protein with Ser25 substituted with alanine, non-phosphorylated point mutant, expressed by lentivirus in A549 cells (protein, left off: a dimerising Fc or GST, FoxM1 protein with Ser25 substituted with alanine, non-phosphorylated point mutant, expressed by lentivirus in A549 cells) MKTSPRRPLILKRRRLPLPVQNAPAETSEEEPKRSPAQQESNQAEASKEVAESNSCKFPAGIKIINHPTMPNTQVVAIPNNANIHSIITALTAKGKESGSSGPNKFILISCGGAPTQPPGLRPQTQTSYDAKRTEVTLETLGPKPAARDVNLPRPPGALCEQKRETCDGEAAGCTINNSLSNIQWLRKMSSDGLGSRSIKQEMEEKENCHLEQRQVKVEEPSRPSASWQNSVSERPPYSYMAMIQFAINSTERKRMTLKDIYTWIEDHFPYFKHIAKPGWKNSIRHNLSLHDMFVRETSANGKVSFWTIHPSANRYLTLDQVFKQQQKRPNPELRRNMTIKTELPLGARRKMKPLLPRVSSYLVPIQFPVNQSLVLQPSVKVPLPLAASLMSSELARHSKRVRIAPKVLLAEEGIAPLSSAGPGKEEKLLFGEGFSPLLPVQTIKEEEIQPGEEMPHLARPIKVESPPLEEWPSPAPSFKEESSHSWEDSSQSPTPRPKKSYSGLRSPTRCVSEMLVIQHRERRERSRSRRKQHLLPPCVDEPELLFSEGPSTSRWAAELPFPADSSDPASQLSYSQEVGGPFKTPIKETLPISSTPSKSVLPRTPESWRLTPPAKVGGLDFSPVQTSQGASDPLPDPLGLMDLSTTPLQSAPPLESPQRLLSSEPLDLISVPFGNSSPSDIDVPKPGSPEPQVSGLAANRSLTEGLVLDTMNDSLSKILLDISFPGLDEDPLGPDNINWSQFIPELQ | not changed compared to the control group | – | – | – | reduced | more effective in reducing the metastasis and suppressing the tumorigenic potential | – | significantly low | – | – | – | significantly decreased | relatively low | no tumors were formed | about 50% | lower relative absorbance | reduced
